Patent publication WO1989007452A1

Target: Campath-1 antigen (partially purified, obtained from a glycolipid extract from human spleen) (human) (UniProt P31358)
Assay: direct binding ELISA on partially purified Campath-1 antigen coated on microtitre wells; detected with biotin-labelled anti-rat IgG2b; antibody concentration at 50% binding

“RaVHCAMP-RaIgG2B (cloned rat heavy chain variable domain of YTH 34.5HL on rat IgG2b constant domains, with rat kappa light chain) (from UniProt P20761 1-333) (antibody)” was tested. Which EC50 did it give?
The EC50 was 1.01 µg/mL.
